Reference: US20260070976A1 (Alector, published 2026)

B1: X4 (antibody, human IgG4, V domains shown)
VH: QVQLVQSGAEVKKPGSSVKVSCKASGYNFLNYDVNWVRQAPGQGLEWMGGIIPIFGTANYAQKFQGRVTITADESTSTAYMELSSLRSEDTAVYYCATGVGAGWFDPWGQGTLVTVSS
VL: DIVMTQSPDSLAVSLGERATINCKSSQSVYFSPNNKNYLAWYQQKPGQPPKLLIYWASTRESGVPDRFSGSGSGTDFTLTISSLQAEDVAVYYCQQYFEEPYTFGQGTRLEIK
B2: X10 (antibody, human IgG4, V domains shown)
VH: QVQLVQSGAEVKKPGSSVKVSCKASGYNFLNYDVNWVRQAPGQGLEWMGGIIPIFGTANYAQKFQGRVTITADESTSTAYMELSSLRSEDTAVYYCATGVGAGWFDPWGQGTLVTVSS
VL: DIVMTQSPDSLAVSLGERATINCKSSQSVFFDENNKNYLAWYQQKPGQPPKLLIYWASTRESGVPDRFSGSGSGTDFTLTISSLQAEDVAVYYCQQYYEEPYTFGQGTRLEIK
B3: X15 (antibody, human IgG4, V domains shown)
VH: QVQLVQSGAEVKKPGSSVKVSCKASGYNFLHYDVNWVRQAPGQGLEWMGGIIPIFGTANYAQKFQGRVTITADESTSTAYMELSSLRSEDTAVYYCATAVGAGWFDTWGQGTLVTVSS
VL: DIVMTQSPDSLAVSLGERATINCKSSQSVFFDVNNKNYLAWYQQKPGQPPKLLIYWASTRESGVPDRFSGSGSGTDFTLTISSLQAEDVAVYYCQQYFEEPYTFGQGTRLEIK
B4: X25 (antibody, human IgG4, V domains shown)
VH: QVQLVQSGAEVKKPGSSVKVSCKASGYNFLNYDVNWVRQAPGQGLEWMGGIIPIFGTANYAQKFQGRVTITADESTSTAYMELSSLRSEDTAVYYCATAVGAGWFDPWGQGTLVTVSS
VL: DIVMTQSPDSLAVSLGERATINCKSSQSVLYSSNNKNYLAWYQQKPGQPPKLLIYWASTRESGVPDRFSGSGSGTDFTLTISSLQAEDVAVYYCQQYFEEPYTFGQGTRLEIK
B5: X17 (antibody, human IgG4, V domains shown)
VH: QVQLVQSGAEVKKPGSSVKVSCKASGYNFLHYDVNWVRQAPGQGLEWMGGIIPIFGTANYAQKFQGRVTITADESTSTAYMELSSLRSEDTAVYYCATAVGAGWFDTWGQGTLVTVSS
VL: DIVMTQSPDSLAVSLGERATINCKSSQSVFFDENNKNYLAWYQQKPGQPPKLLIYWASTRESGVPDRFSGSGSGTDFTLTISSLQAEDVAVYYCQQYFEEPYTFGQGTRLEIK
B6: X19 (antibody, human IgG4, V domains shown)
VH: QVQLVQSGAEVKKPGSSVKVSCKASGYNFLHYDVNWVRQAPGQGLEWMGGIIPIFGTANYAQKFQGRVTITADESTSTAYMELSSLRSEDTAVYYCATAVGAGWFDPWGQGTLVTVSS
VL: DIVMTQSPDSLAVSLGERATINCKSSQSVFFDENNKNYLAWYQQKPGQPPKLLIYWASTRESGVPDRFSGSGSGTDFTLTISSLQAEDVAVYYCQQYYEEPYTFGQGTRLEIK
B7: X5 (antibody, human IgG4, V domains shown)
VH: QVQLVQSGAEVKKPGSSVKVSCKASGYNFLNYDVNWVRQAPGQGLEWMGGIIPIFGTANYAQKFQGRVTITADESTSTAYMELSSLRSEDTAVYYCATGVGAGWFDPWGQGTLVTVSS
VL: DIVMTQSPDSLAVSLGERATINCKSSQSVFFDVNNKNYLAWYQQKPGQPPKLLIYWASTRESGVPDRFSGSGSGTDFTLTISSLQAEDVAVYYCQQYFEEPYTFGQGTRLEIK
B8: X27 (antibody, human IgG4, V domains shown)
VH: QVQLVQSGAEVKKPGSSVKVSCKASGYNFLNYDVNWVRQAPGQGLEWMGGIIPIFGTANYAQKFQGRVTITADESTSTAYMELSSLRSEDTAVYYCATAVGAGWFDPWGQGTLVTVSS
VL: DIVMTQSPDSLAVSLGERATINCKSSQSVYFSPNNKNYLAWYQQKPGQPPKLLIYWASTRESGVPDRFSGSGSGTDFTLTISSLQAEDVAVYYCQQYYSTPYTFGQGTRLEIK
B9: X31 (antibody, human IgG4, V domains shown)
VH: QVQLVQSGAEVKKPGSSVKVSCKASGYNFLNYDVNWVRQAPGQGLEWMGGIIPIFGTANYAQKFQGRVTITADESTSTAYMELSSLRSEDTAVYYCATGVGAGWFDPWGQGTLVTVSS
VL: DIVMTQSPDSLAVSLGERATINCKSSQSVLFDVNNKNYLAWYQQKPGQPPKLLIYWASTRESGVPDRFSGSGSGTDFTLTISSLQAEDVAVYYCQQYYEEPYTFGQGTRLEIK
B10: X9 (antibody, human IgG4, V domains shown)
VH: QVQLVQSGAEVKKPGSSVKVSCKASGYNFLNYDVNWVRQAPGQGLEWMGGIIPIFGTANYAQKFQGRVTITADESTSTAYMELSSLRSEDTAVYYCATGVGAGWFDPWGQGTLVTVSS
VL: DIVMTQSPDSLAVSLGERATINCKSSQSVFFDVNNKNYLAWYQQKPGQPPKLLIYWASTRESGVPDRFSGSGSGTDFTLTISSLQAEDVAVYYCQQYYEEPYTFGQGTRLEIK
B11: X30 (antibody, human IgG4, V domains shown)
VH: QVQLVQSGAEVKKPGSSVKVSCKASGYNFLNYDVNWVRQAPGQGLEWMGGIIPIFGTANYAQKFQGRVTITADESTSTAYMELSSLRSEDTAVYYCATGVGAGWFDPWGQGTLVTVSS
VL: DIVMTQSPDSLAVSLGERATINCKSSQSVYFDVNNKNYLAWYQQKPGQPPKLLIYWASTRESGVPDRFSGSGSGTDFTLTISSLQAEDVAVYYCQQYYEEPYTFGQGTRLEIK
B12: X6 (antibody, human IgG4, V domains shown)
VH: QVQLVQSGAEVKKPGSSVKVSCKASGYNFLNYDVNWVRQAPGQGLEWMGGIIPIFGTANYAQKFQGRVTITADESTSTAYMELSSLRSEDTAVYYCATGVGAGWFDPWGQGTLVTVSS
VL: DIVMTQSPDSLAVSLGERATINCKSSQSVYFDVNNKNYLAWYQQKPGQPPKLLIYWASTRESGVPDRFSGSGSGTDFTLTISSLQAEDVAVYYCQQYFEEPYTFGQGTRLEIK
B13: X33 (antibody, human IgG4, V domains shown)
VH: QVQLVQSGAEVKKPGSSVKVSCKASGYNFLHYDVNWVRQAPGQGLEWMGGIIPIFGTANYAQKFQGRVTITADESTSTAYMELSSLRSEDTAVYYCATAVGAGWFDPWGQGTLVTVSS
VL: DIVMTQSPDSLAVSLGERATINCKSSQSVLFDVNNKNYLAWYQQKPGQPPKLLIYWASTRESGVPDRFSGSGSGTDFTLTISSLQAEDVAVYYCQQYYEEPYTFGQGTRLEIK
B14: X23 (antibody, human IgG4, V domains shown)
VH: QVQLVQSGAEVKKPGSSVKVSCKASGYNFLHYDVNWVRQAPGQGLEWMGGIIPIFGTANYAQKFQGRVTITADESTSTAYMELSSLRSEDTAVYYCATGVGAGWFDPWGQGTLVTVSS
VL: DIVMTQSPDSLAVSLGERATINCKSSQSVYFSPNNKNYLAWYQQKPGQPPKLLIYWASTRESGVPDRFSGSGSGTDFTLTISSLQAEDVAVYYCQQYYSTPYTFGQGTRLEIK
B15: X32 (antibody, human IgG4, V domains shown)
VH: QVQLVQSGAEVKKPGSSVKVSCKASGYNFLHYDVNWVRQAPGQGLEWMGGIIPIFGTANYAQKFQGRVTITADESTSTAYMELSSLRSEDTAVYYCATAVGAGWFDPWGQGTLVTVSS
VL: DIVMTQSPDSLAVSLGERATINCKSSQSVFFDVNNKNYLAWYQQKPGQPPKLLIYWASTRESGVPDRFSGSGSGTDFTLTISSLQAEDVAVYYCQQYYEEPYTFGQGTRLEIK
B16: X28 (antibody, human IgG4, V domains shown)
VH: QVQLVQSGAEVKKPGSSVKVSCKASGYNFLNYDVNWVRQAPGQGLEWMGGIIPIFGTANYAQKFQGRVTITADESTSTAYMELSSLRSEDTAVYYCATAVGAGWFDPWGQGTLVTVSS
VL: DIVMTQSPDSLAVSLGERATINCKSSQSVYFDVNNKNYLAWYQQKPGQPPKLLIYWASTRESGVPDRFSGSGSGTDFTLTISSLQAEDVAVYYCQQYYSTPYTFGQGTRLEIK
B17: X26 (antibody, human IgG4, V domains shown)
VH: QVQLVQSGAEVKKPGSSVKVSCKASGYNFLNYDVNWVRQAPGQGLEWMGGIIPIFGTANYAQKFQGRVTITADESTSTAYMELSSLRSEDTAVYYCATAVGAGWFDPWGQGTLVTVSS
VL: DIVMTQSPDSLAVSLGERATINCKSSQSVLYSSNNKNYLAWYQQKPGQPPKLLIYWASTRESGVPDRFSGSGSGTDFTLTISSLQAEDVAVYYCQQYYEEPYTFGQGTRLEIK
B18: X24 (antibody, human IgG4, V domains shown)
VH: QVQLVQSGAEVKKPGSSVKVSCKASGYNFLHYDVNWVRQAPGQGLEWMGGIIPIFGTANYAQKFQGRVTITADESTSTAYMELSSLRSEDTAVYYCATGVGAGWFDPWGQGTLVTVSS
VL: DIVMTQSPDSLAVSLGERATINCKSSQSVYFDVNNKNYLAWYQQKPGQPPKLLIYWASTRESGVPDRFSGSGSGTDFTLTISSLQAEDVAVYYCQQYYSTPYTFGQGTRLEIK

Tests used:
recombinant human PILRB = recombinant human PILRB (human, UniProt Q9UKJ0 20-191); assay: SPR, Carterra LSA, steady-state fit
Procedure: (§1) Binding kinetics of human anti-PILRA-IgG4 antibodies were evaluated by surface plasmon resonance (SPR) using a Carterra LSA instrument (Carterra, Salt Lake City, UT). Antibodies were immobilized in duplicate arrays onto an HC30M sensor chip (Carterra) by amine coupling according to the manufacturer's protocol. After priming the immobilized antibodies with HBS-EP+ (Teknova, Hollister, CA, #8022) running buffer with 0.5 mg/mL BSA (MP Biomedicals LLC, #820451), the immobilized antibodies were tested for their ability to bind to recombinant human PILRA (SEQ ID NO:1) and cynomolgus PILRA (SEQ ID NO:120) and to human PILRB (SEQ ID NO:105) and cynomolgus PILRB (SEQ ID NO:121).
(§2) For binding kinetics analysis, human and cynomolgus PILRA and PILRB analytes were diluted in running buffer to 440 to 470 nM, and diluted 3-fold serially five times, to 1.8 to 1.9 nM, and injected for five minutes over the entire chip using the single channel flow cell to measure association of binding to the immobilized antibodies. Dissociation of the analytes was measured for five minutes, followed by regeneration of the chip with two 30-second injections of 10 mM glycine pH 2.0.
For the human PILRB interactions, the binding was too weak and heterogenous for kinetic constants to be calculated in this assay. Therefore, steady-state affinities were estimated based on the binding level of each analyte concentration at the end of the injections.

recombinant human PILRA = recombinant human PILRA (human, UniProt Q9UKJ1 20-197); assay: SPR, Carterra LSA, antibody amine-coupled, kinetic fit
Procedure: as §1, §2

[1] = molecular target: T1, recombinant cynomolgus PILRA (SEQ ID NO:120) (cynomolgus monkey); assay: as above
T1 construct: also called cyno PILRA
Procedure: as §1, §2

Sequence of recombinant human PILRA (Q9UKJ1 20-197 limits assumed): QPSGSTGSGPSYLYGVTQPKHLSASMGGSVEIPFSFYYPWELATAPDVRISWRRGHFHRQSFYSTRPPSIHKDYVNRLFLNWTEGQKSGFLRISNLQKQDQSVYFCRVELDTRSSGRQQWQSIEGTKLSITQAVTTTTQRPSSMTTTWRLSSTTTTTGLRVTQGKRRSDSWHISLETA
Sequence of recombinant human PILRB (Q9UKJ0 20-191 limits assumed): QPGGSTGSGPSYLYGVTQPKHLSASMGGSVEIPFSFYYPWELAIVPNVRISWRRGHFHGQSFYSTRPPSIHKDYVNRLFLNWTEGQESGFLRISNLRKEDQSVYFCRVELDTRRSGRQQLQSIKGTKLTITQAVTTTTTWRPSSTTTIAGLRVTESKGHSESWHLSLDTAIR
T1 sequence (chain, as listed by the source limits assumed): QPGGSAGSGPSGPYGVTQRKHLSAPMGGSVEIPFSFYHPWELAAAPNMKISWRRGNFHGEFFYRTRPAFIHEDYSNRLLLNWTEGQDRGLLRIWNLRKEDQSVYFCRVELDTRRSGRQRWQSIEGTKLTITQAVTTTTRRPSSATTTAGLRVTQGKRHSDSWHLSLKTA

Binder	Kd (recombinant human PILRB) [nM]	Kd (recombinant human PILRA) [nM]	Kd [1] [nM]
B1	138	12	0.2
B2	68	3.2	0.3
B3	2	0.1	0.1
B4	211	7	0.3
B5	2	0.4	0.1
B6	2	0.3	0.1
B7	35	2.4	0.1
B8	87	13	0.5
B9	38	2.2	0.1
B10	39	2.8	0.1
B11	43	3.3	0.1
B12	35	3.1	0.1
B13	2	0.6	0.1
B14	35	3.9	0.3
B15	2	0.1	0.1
B16	33	3.8	0.3
B17	199	8.1	0.3
B18	16	1.7	0.2
